Laboratory results from the supplement of paper PMC10724198.
± gives the standard deviation of the averaged measurements.

Legend:
Saccharomyces cerevisiae [1] = experiment: protein stability index of tFT-peptide fusion (C-terminal peptide) (PSI (0-1 scale)); higher = more stable (slower turnover)
Experimental: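 MPS profiling in S. cerevisiae of the tFT-X12 degron library: putative degron peptides plus stable controls, 12 aa, fused to the C-terminus of a sfGFP-mCherry timer. Cells are FACS-sorted into 8 mCherry/sfGFP bins and deep-sequenced. PSI runs from 0 (unstable) to 1 (stable). Backgrounds are wild type, das1Δ and doa10Δ at 30 °C, and wild type, das1Δ, cdc34-1 and cdc53-1 at 37 °C; 2-3 technical replicates each.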

Saccharomyces cerevisiae [2] = experiment: as above; settings: genetic background: wild type; temperature: 30 C
[3] = genetic background: cdc34-1, temperature: 37 C
[4] = genetic background: cdc53-1, temperature: 37 C
[5] = genetic background: das1 deletion, temperature: 30 C
[6] = genetic background: das1 deletion, temperature: 37 C
[7] = genetic background: doa10 deletion, temperature: 30 C
[8] = genetic background: wild type, temperature: 30 C
[9] = genetic background: wild type, temperature: 37 C
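Further: PSI is a weighted mean of sequencing reads over stability bins, variants kept only with over 10 reads, mCherry proximal and sfGFP distal, peptide attached via GGGS linker.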

Sequence	protein stability index (Saccharomyces cerevisiae [1]; [3])	protein stability index (Saccharomyces cerevisiae [1]; [4])	protein stability index (Saccharomyces cerevisiae [1]; [5])	protein stability index (Saccharomyces cerevisiae [1]; [6])	protein stability index (Saccharomyces cerevisiae [1]; [7])	protein stability index (Saccharomyces cerevisiae [1]; [8])	protein stability index (Saccharomyces cerevisiae [1]; [9])	protein stability index (Saccharomyces cerevisiae [2])
PLLPPLSTPPPA	0.69 ± 0.0086	0.732 ± 0.023	0.663 ± 0.015	0.739 ± 0.011	0.669 ± 0.022	0.677 ± 0.013	0.6983 ± 0.0039	0.385 ± 0.062
SSVCYFGLLFIV	0.452 ± 0.038	0.561 ± 0.015	0.44 ± 0.026	0.623 ± 0.034	0.103 ± 0.0046	0.103 ± 0.022	0.139 ± 0.022	0.184 ± 0.0042
APPLPFPTPPPS	0.68 ± 0.031	0.747 ± 0.034	0.644 ± 0.042	0.693 ± 0.038	0.647 ± 0.029	0.633 ± 0.029	0.678 ± 0.0098	
IRRWGRCRVRCM	0.584 ± 0.029	0.655 ± 0.034	0.428 ± 0.037	0.616 ± 0.018	0.255 ± 0.0087	0.288 ± 0.028	0.52896 ± 2.4e-05	
RRAVGLANFTIK	0.705 ± 0.016	0.773 ± 0.035	0.678 ± 0.062	0.693 ± 0.028	0.639 ± 0.06	0.671 ± 0.019	0.706 ± 0.022	
VPPGCSLFAFIL	0.7246 ± 0.005	0.75537 ± 0.00043	0.644 ± 0.025	0.7794 ± 0.005	0.555 ± 0.032	0.547 ± 0.019	0.73 ± 0.01	
RLLLLPGPLALQ	0.634 ± 0.022	0.73 ± 0.034	0.67 ± 0.022	0.7 ± 0.016	0.685 ± 0.054	0.673 ± 0.021	0.714 ± 0.062	
FGGVFCVMARLV	0.602 ± 0.14	0.685 ± 0.016	0.629 ± 0.034	0.689 ± 0.01	0.318 ± 0.0054	0.356 ± 0.025	0.506 ± 0.0059	
AVTMSYQCGIFI	0.646 ± 0.029	0.672 ± 0.031	0.564 ± 0.0081	0.71 ± 0.028	0.5372 ± 0.0042	0.566 ± 0.019	0.68 ± 0.022	
